We go through 4 molecules from patent US20230144203A1 (SHANGHAI SENHUI MEDICINE CO., LTD., priority 2020, published 2023).

Data set [1] relates to human diffuse large B-cell lymphoma WSU-DLCL2. The data set is described as follows: Test Example 3 nude mouse subcutaneous xenograft tumor efficacy. On the procedure: Human diffuse large B-cell lymphoma WSU-DLCL2 cells were purchased from DSMZ. WSU-DLCL2 cells were cultured in a 10-cm petri dish with RPMI 1640 medium (Gibco) containing 10% fetal bovine serum, penicillin and streptomycin (GIBCO, Cat #15070-063) and incubated in an incubator at 37° C. with 5% CO2. Subculturing was carried out 2-3 times a week and cells were collected, counted and inoculated when the cells grew in long-term exponentially.
Female BALB/c-nu nude mice with a growth period of 28-35 days was purchased from Beijing Huafukang Biotechnology Co., Ltd. Production license No.: SCXK (Beijing) 2019-0008, animal certification No.: 1103221911012510. Housing environment: SPF grade.
Each nude mouse was subcutaneously inoculated with 2.0×10^7 WSU-DLCL2 cells, and after the tumor volume grew to −100 mm^3, the animals were grouped according to tumor volume (D0). The mice was administrated by intravenous injection (IV), and the administration volume was 10 mL/kg; specific dosages and schedules are shown in Table 3. The tumor volumes and body weights were measured twice a week and the results were recorded.
The experimental index is to study the influence of the drug on the tumor growth, and the specific index is T/C % or tumor growth inhibition TGI (%). Tumor diameters were measured twice weekly with a vernier caliper and tumor volume (V) was calculated according to the following formula:
where a and b represent length and width, respectively. T/C (%)=(T−T0)/(C−C0)×100, where T and C were tumor volumes at the end of the experiment; T0 and C0 were tumor volumes at the beginning of the experiment.
If the volume of tumor shrank compared with its initial volume, i.e., T<T0 or C<C0, it was defined as partial regression(PR) of tumor; if the tumor completely disappeared, it was defined as complete regression (CR) of tumor.
Unless otherwise indicated, comparison between tumor volumes of the two groups was made by two-tailed student's t-test, with P<0.05 defined as statistically significant difference.

For data set [2], the target named is T1, huTROP-2 protein (His27-Thr274 Accession #NP_002344.2) (human, UniProt P09758 27-274).
T1 sequence: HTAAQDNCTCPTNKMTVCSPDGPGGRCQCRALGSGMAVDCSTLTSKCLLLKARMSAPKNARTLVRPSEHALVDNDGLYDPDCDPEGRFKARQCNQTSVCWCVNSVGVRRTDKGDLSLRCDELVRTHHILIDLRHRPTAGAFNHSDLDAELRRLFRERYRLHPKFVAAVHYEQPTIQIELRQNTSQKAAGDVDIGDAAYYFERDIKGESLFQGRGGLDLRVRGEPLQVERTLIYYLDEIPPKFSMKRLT
The data set is described as follows: activity verification with huTROP-2 protein His27-Thr274 (method not detailed).

For data set [3], the target named is T2, huTROP-2 on CHO-K1 cells over-expressing huTROP-2 protein (human, UniProt P09758 27-323).
T2 construct: No signal peptide cleavage is stated for this form; also called CHO-K1/hTROP-2
T2 sequence: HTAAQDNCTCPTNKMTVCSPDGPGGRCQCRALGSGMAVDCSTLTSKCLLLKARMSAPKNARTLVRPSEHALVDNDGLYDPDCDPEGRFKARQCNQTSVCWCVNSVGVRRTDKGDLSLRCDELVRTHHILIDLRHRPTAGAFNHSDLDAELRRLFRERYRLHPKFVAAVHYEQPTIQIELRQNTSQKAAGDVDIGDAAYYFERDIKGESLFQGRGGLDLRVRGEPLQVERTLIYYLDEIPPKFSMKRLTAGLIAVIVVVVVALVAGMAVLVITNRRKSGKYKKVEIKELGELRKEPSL
The experiment in a line: activity verification on CHO-K1 cells over-expressing huTROP-2 (method not detailed).

For data set [4], the target named is T3, human CD79B (Homo sapiens, UniProt P40259).
T3 construct: the extracellular region (ECD) of which comprises 159 amino acids (Met1-Asp159); human Fc domain (hFc) OR His tag; made in house; host or cells: 293F cells
T3 sequence (P40259 29-159 limits assumed): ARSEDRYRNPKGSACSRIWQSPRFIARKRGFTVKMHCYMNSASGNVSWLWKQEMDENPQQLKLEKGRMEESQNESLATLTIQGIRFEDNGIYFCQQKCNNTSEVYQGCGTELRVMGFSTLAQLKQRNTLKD
The data set is described as follows: ELISA of culture supernatant of anti-human CD79B hybridoma positive clones. Format: binding. The conditions noted are these: 1 μg/mL coated antigen. On the procedure: (§1) 3) ELISA screening: the 96-well plates were correspondingly labeled before experiment, and coated with 1 μg/mL antigen at 50 μL per well in a refrigerator at 4° C. overnight. The next day, the coated antigen plates from the previous day were removed and washed once with a plate washer (cleaning solution: 1×PBST). After washing, the plates were blocked with 1% BSA blocking solution prepared in 1×PBST at 37° C. for 1 h. After being washed with 1×PBST cleaning solution for 3 times, the plates were added with 50 μL cell supernatant to be detected, and incubated in a 37° C. incubator for 1 h. After the plates were washed with 1×PBST cleaning solution for 3 times, added with 100 μL of goat anti-mouse secondary antibody diluted at 1:5000, and incubated in an incubator at 37° C. for 0.5 h. The plates were washed, the TMB color developing solution A solution and B solution in a ratio of 1:1 was taken for to color development. The color development reaction was terminated with 1 N hydrochloric acid for 15 min. Fluorescence value was read at 450 nm on a Spectra Max M5 multi-functional plate reader.
5) Hybridoma positive clone identification: after fusion and subclone screening of mouse splenocytes, multiple specific antibodies against human CD79B antigen were obtained, and the antibodies from the 17 strains of hybridomas having the highest binding to ELISA and FACS were produced and purified. […]
A general note: In an ELISA, binding on a coated surface is turned into a signal by an enzyme label.

Data set [5] deals with T4, human CD79B (Homo sapiens, UniProt P40259).
T4 construct: endogenous in cells; host or cells: DOHH2
T4 sequence (P40259 29-229): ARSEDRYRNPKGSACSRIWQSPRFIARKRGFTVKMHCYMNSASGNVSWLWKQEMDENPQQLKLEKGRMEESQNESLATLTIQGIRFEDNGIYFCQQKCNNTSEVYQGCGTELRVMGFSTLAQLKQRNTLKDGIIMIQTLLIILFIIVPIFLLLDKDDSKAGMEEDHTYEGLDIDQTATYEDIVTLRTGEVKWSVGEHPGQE
T4 sequence (P11912 33-226 partner): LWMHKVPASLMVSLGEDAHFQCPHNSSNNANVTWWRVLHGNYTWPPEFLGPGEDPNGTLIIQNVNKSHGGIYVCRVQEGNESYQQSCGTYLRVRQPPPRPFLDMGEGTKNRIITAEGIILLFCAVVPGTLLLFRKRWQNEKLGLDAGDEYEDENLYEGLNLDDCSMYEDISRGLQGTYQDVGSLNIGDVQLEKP
The data set is described as follows: FACS of culture supernatant of anti-human CD79B hybridoma positive clones on DOHH2 cells. In kind it is binding. As to the method:
4) FACS screening: after centrifugation, the cell suspension of DOHH2 was resuspended in PBS containing 0.1% BSA, counted, added with the test cell supernatant and incubated at room temperature for 60 min. The cells were washed three times, then added with Anti-Mouse IgG (Fc specific)-FITC secondary antibody, and incubated at room temperature for 30 min in the dark. The cells were washed three times, gently resuspended in PBS containing 0.1% BSA, and then assayed using the machine.
5) Hybridoma positive clone identification: after fusion and subclone screening of mouse splenocytes, multiple specific antibodies against human CD79B antigen were obtained, and the antibodies from the 17 strains of hybridomas having the highest binding to ELISA and FACS were produced and purified. Meanwhile, specific antibodies against monkey CD79B antigen were obtained, and the 4 strains of hybridomas having the highest binding to ELISA and FACS were taken for production and purification of antibodies. mIgG was used as negative control in the both assays.

In data set [6] the target is T3, human CD79B. The data set is described as follows: ELISA assay on purified anti-human CD79B mouse monoclonal antibodies. Format: binding. As to the method: as §1, with “2)” for “3)”, “assay on anti-human CD79B mouse monoclonal antibodies:” for “screening:”, “of diluted antibody at 1:10 at 100 nM,” for “cell supernatant to be detected,”
The target in data set [7] is T4, human CD79B. The data set is described as follows: FACS assay on purified anti-human CD79B mouse monoclonal antibodies (DOHH2 cells). In kind it is binding. As to the method:
3) FACS assay on anti-human CD79B mouse monoclonal antibodies: after centrifugation, the cell suspension of DOHH2 was resuspended in PBS containing 0.1% BSA, counted, added with 100 μL of antibody diluted 1:10 at 100 nM and incubated at room temperature for 1 h. The cells were washed three times, then added with Anti-Mouse IgG (Fc specific)-FITC secondary antibody, and incubated at room temperature for 30 min in the dark. The cells were washed three times, gently resuspended in PBS containing 0.1% BSA, and then assayed using the machine.
Background: A flow cytometer gives signals particle by particle.

As to polatuzumab [Polivy], in data set [1] (1 mg/kg IV at D0, no significant weight loss), the “Tolerability in tumor-bearing mice” value is “could well tolerate”. In data set [1] (D0, 1 mg/kg IV at D0), the “Mean tumor volume (mean ± SEM)” value turned out to be 108.07 ± 1.31 mm^3. Moreover, in data set [1] (D17, 1 mg/kg IV at D0), the “Mean tumor volume (mean ± SEM)” value is 550.88 ± 52.37 mm^3, the T/C % is 63% and the “Tumor inhibition rate (%)” value turned out to be 37%.

B1: anti-TROP-2 antibody PD3 (antibody, human IgG1, kappa, V domains shown)
VH: EVQLVQSGSELKKPGASVKVSCKASGYTFTNYGMNWVKQAPGQGLKWMGWINTYTGEPTYTQDFKGRFAFSLDTSVSTAYLQISSLKAEDTAVYYCARGGFGSSYWYFDVWGQGTLVTVSS
VL: DIQLTQSPSSLSASVGDRVSITCKASQDVSIAVAWYQQKPGKAPKLLIYSASYRYTGVPDRFSGSGSGTDFTLTISSLQPEDFAVYYCQQHYITPLTFGAGTKVEIKR
notes: also called anti-human TROP-2 monoclonal antibody
On to B1, for which the binding result in data set [2] and in data set [3] was “binds” throughout.

B2: mAb015: anti-human CD79B mouse monoclonal antibody, VH SEQ ID NO: 3, VL SEQ ID NO: 4 (antibody, V domains shown)
VH: QVQLQQSGAELARPGASVKLSCKASGSSFTSYGINWVKQRTGQGLEWIGEIFPRSGNTYYNEKFEGKATLTADKSSSTAYMELRSLTSEDSAVYFCAKGDLGDFDYWGQGTTLTVSS
VL: DFLMTQTPLSLPVRLGDQASISCRSSQSIVHSDGNTYFEWYLQKPGQSPKLLIYKVSNRFSGVPDRFSGSGSGTDFTLKISRVEAEDLGVYYCFQGSHVPWTFGGGTKLEIK
For the molecule B2, in the data set with human CD79B [4], the “Results (OD450)” value is listed as 3.41. Besides, the Mean fluorescence value with human CD79B [5] is 10036. Besides, in the data set with human CD79B [6], the ELISA binding capacity entry is “highest ELISA binding capacity”. For the same molecule, in the data set with human CD79B [7], the FACS binding capacity entry is “highest FACS binding capacity”.

B3: mAb017: anti-human CD79B mouse monoclonal antibody, VH SEQ ID NO: 5, VL SEQ ID NO: 6 (antibody, V domains shown)
VH: QVQLQQSGAELARPGASVKLSCKASGYTFTTYGINWVKQRTGQGLEWIGEIYPRSGNIYYNEKFKGKATLTADKSSSTAYMELRSLTSEDSAVYFCARGSDYDGDFAYWGQGTLVTVSA
VL: DVLMTQTPLSLPVSLGDQASISCRSSQSIVHHDGNTYLEWYLQKPGQSPKLLIYKVSNRFSGVPDRFSGSGSGTDFTLKISRVEAEDLGVYYCFQGSHVPWTFGGGTQLEIK
Take B3: the “Results (OD450)” value with human CD79B [4] came out at 3.80. In addition, in the data set with human CD79B [5], the Mean fluorescence value was 8132. Moreover, the ELISA binding capacity entry with human CD79B [6] was “highest ELISA binding capacity”. Moreover, in the data set with human CD79B [7], the FACS binding capacity result is on record as “highest FACS binding capacity”.
